Source: US7358333 (GENODYSSE S A, dated 2008)
Numbering of substitutions follows the chain as printed. In names and notes the source's numbering stands.

B1: natural wild-type IFNα-5 protein (ligand)
chain: CDLPQTHSLSNRRTLMIMAQMGRISPFSCLKDRHDFGFPQEEFDGNQFQKAQAISVLHEMIQQTFNLFSTKDSSATWDETLLDKFYTELYQQLNDLEACMMQEVGVEDTPLMNVDSILTVRKYFQRITLYLTEKKYSPCAWEVVRAEIMRSFSLSANLQERLRRKE
B2: C122S mutated IFNα-5 (ligand)
chain: B1 chain with C99S

Biological target: interferon receptor on MCF-7 breast carcinoma cells
Assay: cell-based or functional assay

Row | Binder | EC50, stimulation of Luciferase activity (pISRE-Luc reporter gene in MCF-7 cells) [pM] | ratio of the EC50 value for the mutated protein over the EC50 value for the wild-type protein (pISRE-Luc reporter gene in MCF-7 cells) [fold]
1 | B1 | 5.67 | –
2 | B2 | 93.3 | 18.3
